We go through eight molecules from patent publication US20230406885A1, “CYCLIC PEPTIDES FOR TRAPPING INTERLEUKIN-1 BETA” (MERCK SHARP & DOHME LLC, priority 2022, published 2023).

*1 amine or outer side, *2 acyl side, *3 side chain or, on linkers, in order; H or OH if unused. [ ]: non-standard residue; d: D form. 3AzaPhe4AcPip = (S)-3-(6-(4-acetylpiperazin-1-yl)pyridin-3-yl)-2-aminopropanoic acid, CC(=O)N1CCN(c2ccc(C[C@H](N[*:1])C(=O)[*:2])cn2)CC1; Trp(4-Cl)(βS-Me) = C[C@@H](c1c[nH]c2cccc(Cl)c12)[C@H](N)C(=O)O; Pro(trans-4-NH2) = O=C([C@@H]1C[C@@H](N[*:3])CN1[*:1])[*:2]; Bip(4'-COOH) = N[C@@H](Cc1ccc(-c2ccc(C(=O)O)cc2)cc1)C(=O)O; Phe(3-CH2NH2) = O=C([C@H](Cc1cccc(CN[*:3])c1)N[*:1])[*:2]; 1Nal(3S-Me) = C[C@@H](c1cccc2ccccc12)[C@H](N)C(=O)O; Phe(4-COOH) = N[C@@H](Cc1ccc(C(=O)O)cc1)C(=O)O; Phe(4-CH2NH2) = NCc1ccc(C[C@H](N)C(=O)O)cc1; Phe(3-NH2) = Nc1cccc(C[C@H](N)C(=O)O)c1; Phe(4-NH2) = Nc1ccc(C[C@H](N)C(=O)O)cc1; hTyr = N[C@@H](CCc1ccc(O)cc1)C(=O)O; dDab = NCC[C@@H](N)C(=O)O; Orn = NCCC[C@H](N)C(=O)O; dNMeA = CN[C@H](C)C(=O)O; Dap = NC[C@H](N)C(=O)O

To fix the notation:
B1: SEQ ID NO: 48 (peptide)
peptide: cyclo([Bip(4'-COOH)]W[Phe(4-COOH)]G[Pro(trans-4-NH2)][Trp(4-Cl)(βS-Me)]D[dNMeA]G[Bip(4'-COOH)][Phe(3-CH2NH2)]S[dA][hTyr])
SMILES: C[C@@H]1C(=O)NCC(=O)N[C@@H](Cc2ccc(-c3ccc(C(=O)O)cc3)cc2)C(=O)N[C@@H](Cc2cccc(CN)c2)C(=O)N[C@@H](CO)C(=O)N[C@H](C)C(=O)N[C@@H](CCc2ccc(O)cc2)C(=O)N[C@@H](Cc2ccc(-c3ccc(C(=O)O)cc3)cc2)C(=O)N[C@@H](Cc2c[nH]c3ccccc23)C(=O)N[C@@H](Cc2ccc(C(=O)O)cc2)C(=O)NCC(=O)N2C[C@H](N)C[C@H]2C(=O)N[C@@H]([C@@H](C)c2c[nH]c3cccc(Cl)c23)C(=O)N[C@@H](CC(=O)O)C(=O)N1C
B2: SEQ ID NO: 54 (peptide)
peptide: cyclo([Bip(4'-COOH)]W[Phe(4-COOH)]G[Pro(trans-4-NH2)][Trp(4-Cl)(βS-Me)]D[dNMeA]G[Bip(4'-COOH)]WG[dDab][hTyr])
SMILES: C[C@@H]1C(=O)NCC(=O)N[C@@H](Cc2ccc(-c3ccc(C(=O)O)cc3)cc2)C(=O)N[C@@H](Cc2c[nH]c3ccccc23)C(=O)NCC(=O)N[C@H](CCN)C(=O)N[C@@H](CCc2ccc(O)cc2)C(=O)N[C@@H](Cc2ccc(-c3ccc(C(=O)O)cc3)cc2)C(=O)N[C@@H](Cc2c[nH]c3ccccc23)C(=O)N[C@@H](Cc2ccc(C(=O)O)cc2)C(=O)NCC(=O)N2C[C@H](N)C[C@H]2C(=O)N[C@@H]([C@@H](C)c2c[nH]c3cccc(Cl)c23)C(=O)N[C@@H](CC(=O)O)C(=O)N1C
B3: SEQ ID NO: 50 (peptide)
peptide: cyclo([Bip(4'-COOH)]W[Phe(4-COOH)]G[Pro(trans-4-NH2)][Trp(4-Cl)(βS-Me)]D[dNMeA]G[Bip(4'-COOH)][Phe(3-NH2)]S[dA][hTyr])
SMILES: C[C@@H]1C(=O)NCC(=O)N[C@@H](Cc2ccc(-c3ccc(C(=O)O)cc3)cc2)C(=O)N[C@@H](Cc2cccc(N)c2)C(=O)N[C@@H](CO)C(=O)N[C@H](C)C(=O)N[C@@H](CCc2ccc(O)cc2)C(=O)N[C@@H](Cc2ccc(-c3ccc(C(=O)O)cc3)cc2)C(=O)N[C@@H](Cc2c[nH]c3ccccc23)C(=O)N[C@@H](Cc2ccc(C(=O)O)cc2)C(=O)NCC(=O)N2C[C@H](N)C[C@H]2C(=O)N[C@@H]([C@@H](C)c2c[nH]c3cccc(Cl)c23)C(=O)N[C@@H](CC(=O)O)C(=O)N1C
B4: SEQ ID NO: 5 (peptide)
peptide: cyclo([3AzaPhe4AcPip]W[Phe(4-COOH)]G[Pro(trans-4-NH2)][1Nal(3S-Me)]D[dNMeA]G[Bip(4'-COOH)]W[Dap][dA][hTyr])
SMILES: CC(=O)N1CCN(c2ccc(C[C@@H]3NC(=O)[C@H](CCc4ccc(O)cc4)NC(=O)[C@@H](C)NC(=O)[C@H](CN)NC(=O)[C@H](Cc4c[nH]c5ccccc45)NC(=O)[C@H](Cc4ccc(-c5ccc(C(=O)O)cc5)cc4)NC(=O)CNC(=O)[C@@H](C)N(C)C(=O)[C@H](CC(=O)O)NC(=O)[C@H]([C@@H](C)c4cccc5ccccc45)NC(=O)[C@@H]4C[C@@H](N)CN4C(=O)CNC(=O)[C@H](Cc4ccc(C(=O)O)cc4)NC(=O)[C@H](Cc4c[nH]c5ccccc45)NC3=O)cn2)CC1
B5: SEQ ID NO: 51 (peptide)
peptide: cyclo([Bip(4'-COOH)]W[Phe(4-COOH)]G[Pro(trans-4-NH2)][Trp(4-Cl)(βS-Me)]D[dNMeA]G[Bip(4'-COOH)][Phe(4-CH2NH2)]S[dA][hTyr])
SMILES: C[C@@H]1C(=O)NCC(=O)N[C@@H](Cc2ccc(-c3ccc(C(=O)O)cc3)cc2)C(=O)N[C@@H](Cc2ccc(CN)cc2)C(=O)N[C@@H](CO)C(=O)N[C@H](C)C(=O)N[C@@H](CCc2ccc(O)cc2)C(=O)N[C@@H](Cc2ccc(-c3ccc(C(=O)O)cc3)cc2)C(=O)N[C@@H](Cc2c[nH]c3ccccc23)C(=O)N[C@@H](Cc2ccc(C(=O)O)cc2)C(=O)NCC(=O)N2C[C@H](N)C[C@H]2C(=O)N[C@@H]([C@@H](C)c2c[nH]c3cccc(Cl)c23)C(=O)N[C@@H](CC(=O)O)C(=O)N1C
B6: SEQ ID NO: 52 (peptide)
peptide: cyclo([Bip(4'-COOH)]W[Phe(4-COOH)]G[Pro(trans-4-NH2)][Trp(4-Cl)(βS-Me)]D[dNMeA]G[Bip(4'-COOH)][Phe(4-NH2)]S[dA][hTyr])
SMILES: C[C@@H]1C(=O)NCC(=O)N[C@@H](Cc2ccc(-c3ccc(C(=O)O)cc3)cc2)C(=O)N[C@@H](Cc2ccc(N)cc2)C(=O)N[C@@H](CO)C(=O)N[C@H](C)C(=O)N[C@@H](CCc2ccc(O)cc2)C(=O)N[C@@H](Cc2ccc(-c3ccc(C(=O)O)cc3)cc2)C(=O)N[C@@H](Cc2c[nH]c3ccccc23)C(=O)N[C@@H](Cc2ccc(C(=O)O)cc2)C(=O)NCC(=O)N2C[C@H](N)C[C@H]2C(=O)N[C@@H]([C@@H](C)c2c[nH]c3cccc(Cl)c23)C(=O)N[C@@H](CC(=O)O)C(=O)N1C
B7: SEQ ID NO: 53 (peptide)
peptide: cyclo([Bip(4'-COOH)]W[Phe(4-COOH)]G[Pro(trans-4-NH2)][Trp(4-Cl)(βS-Me)]D[dNMeA]G[Bip(4'-COOH)]W[Dap][dA][hTyr])
SMILES: C[C@@H]1C(=O)NCC(=O)N[C@@H](Cc2ccc(-c3ccc(C(=O)O)cc3)cc2)C(=O)N[C@@H](Cc2c[nH]c3ccccc23)C(=O)N[C@@H](CN)C(=O)N[C@H](C)C(=O)N[C@@H](CCc2ccc(O)cc2)C(=O)N[C@@H](Cc2ccc(-c3ccc(C(=O)O)cc3)cc2)C(=O)N[C@@H](Cc2c[nH]c3ccccc23)C(=O)N[C@@H](Cc2ccc(C(=O)O)cc2)C(=O)NCC(=O)N2C[C@H](N)C[C@H]2C(=O)N[C@@H]([C@@H](C)c2c[nH]c3cccc(Cl)c23)C(=O)N[C@@H](CC(=O)O)C(=O)N1C
B8: SEQ ID NO: 49 (peptide)
peptide: cyclo([Bip(4'-COOH)]W[Phe(4-COOH)]G[Pro(trans-4-NH2)][Trp(4-Cl)(βS-Me)]D[dNMeA]G[Bip(4'-COOH)][Orn]S[dA][hTyr])
SMILES: C[C@@H]1C(=O)NCC(=O)N[C@@H](Cc2ccc(-c3ccc(C(=O)O)cc3)cc2)C(=O)N[C@@H](CCCN)C(=O)N[C@@H](CO)C(=O)N[C@H](C)C(=O)N[C@@H](CCc2ccc(O)cc2)C(=O)N[C@@H](Cc2ccc(-c3ccc(C(=O)O)cc3)cc2)C(=O)N[C@@H](Cc2c[nH]c3ccccc23)C(=O)N[C@@H](Cc2ccc(C(=O)O)cc2)C(=O)NCC(=O)N2C[C@H](N)C[C@H]2C(=O)N[C@@H]([C@@H](C)c2c[nH]c3cccc(Cl)c23)C(=O)N[C@@H](CC(=O)O)C(=O)N1C

The target in this test is Recombinant human IL-1β (BioLegend 579404) (human, UniProt P01584 117-269). Put plainly: cell-based or functional assay.
On to B1, for which the “MRC5 IC50” value stood at 0.041 nM.

Take B2: the “MRC5 IC50” value amounted to 0.0692 nM.

Regarding B3, the “MRC5 IC50” value came out at 0.52 nM.

For B4, the “MRC5 IC50” value turned out to be 0.674 nM.

In the case of B5, the “MRC5 IC50” value was found to be 0.32 nM.

Consider B6, for which the “MRC5 IC50” value was 0.454 nM.

With B7, the “MRC5 IC50” value worked out at 0.0418 nM.

For B8, the “MRC5 IC50” value came out at 0.402 nM.
